From patent US20160159920A1
Several values for one entry are separate records, joined by “and”; a condition that tells them apart may be missing. Equal entries are not always repeated.

Target: human Leptin receptor (LepR) (human) (UniProt P48357)
Test: cell-based or functional assay

Sequence of human Leptin receptor (LepR) (human) (P48357 22-1165): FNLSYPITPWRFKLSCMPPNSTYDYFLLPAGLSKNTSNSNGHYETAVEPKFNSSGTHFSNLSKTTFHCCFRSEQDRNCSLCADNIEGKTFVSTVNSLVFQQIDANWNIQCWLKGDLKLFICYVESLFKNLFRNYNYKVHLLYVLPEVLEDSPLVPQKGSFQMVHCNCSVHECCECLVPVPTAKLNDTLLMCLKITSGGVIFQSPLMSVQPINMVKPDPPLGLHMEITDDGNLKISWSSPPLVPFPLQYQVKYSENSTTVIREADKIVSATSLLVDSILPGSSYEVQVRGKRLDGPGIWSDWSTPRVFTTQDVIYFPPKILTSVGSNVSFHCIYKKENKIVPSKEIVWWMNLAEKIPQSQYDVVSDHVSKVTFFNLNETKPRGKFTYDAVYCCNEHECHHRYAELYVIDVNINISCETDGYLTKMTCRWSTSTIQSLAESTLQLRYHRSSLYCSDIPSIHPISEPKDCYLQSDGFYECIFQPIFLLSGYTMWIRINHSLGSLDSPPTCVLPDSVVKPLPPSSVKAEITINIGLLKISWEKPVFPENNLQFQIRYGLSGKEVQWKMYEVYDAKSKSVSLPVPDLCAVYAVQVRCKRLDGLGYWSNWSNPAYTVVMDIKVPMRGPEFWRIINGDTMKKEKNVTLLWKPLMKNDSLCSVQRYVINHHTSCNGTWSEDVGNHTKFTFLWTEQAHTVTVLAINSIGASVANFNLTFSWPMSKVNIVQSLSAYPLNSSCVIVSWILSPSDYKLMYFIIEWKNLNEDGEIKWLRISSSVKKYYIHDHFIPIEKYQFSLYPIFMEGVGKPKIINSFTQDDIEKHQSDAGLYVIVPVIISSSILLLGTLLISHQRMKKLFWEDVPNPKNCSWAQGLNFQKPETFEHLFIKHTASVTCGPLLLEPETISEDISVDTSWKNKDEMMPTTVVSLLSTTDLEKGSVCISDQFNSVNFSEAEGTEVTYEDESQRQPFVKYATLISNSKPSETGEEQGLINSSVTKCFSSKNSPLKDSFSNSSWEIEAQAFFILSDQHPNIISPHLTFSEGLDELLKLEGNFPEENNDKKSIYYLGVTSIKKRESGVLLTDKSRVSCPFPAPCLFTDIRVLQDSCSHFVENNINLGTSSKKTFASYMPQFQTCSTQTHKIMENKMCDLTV

Substance: hLeptin (SEQ ID NO: 238) (from UniProt P41159 22-167) (ligand)
- EC50, AlamarBlue proliferation of Baf3 stable cells overexpressing LepR: 129 ρM and 58.2 ρM
